# Reference: patent US20030191058A1 (WALTER AND ELIZA INSTITUTE OF MEDICAL RESEARCH, published 2003)
# Square brackets hold non-standard residues; d marks the D form. * marks the point of attachment. Biotin = O=C1N[C@H]2[C@H](CS[C@H]2CCCCC(=O)*)N1; pY = N[C@@H](Cc1ccc(OP(=O)(O)O)cc1)C(=O)O
# T1: recombinant murine SOCS-3, hexahistidine tagged (expressed from pET15b in E. coli, refolded) (murine, UniProt O35718 1-225)
# T1 construct: also called recombinant SOCS-3; suppressor of cytokine signalling 3; not shown: hexahistidine tag from vector pET15b (NdeI/BamHI cloning)
# T1 sequence (looked up): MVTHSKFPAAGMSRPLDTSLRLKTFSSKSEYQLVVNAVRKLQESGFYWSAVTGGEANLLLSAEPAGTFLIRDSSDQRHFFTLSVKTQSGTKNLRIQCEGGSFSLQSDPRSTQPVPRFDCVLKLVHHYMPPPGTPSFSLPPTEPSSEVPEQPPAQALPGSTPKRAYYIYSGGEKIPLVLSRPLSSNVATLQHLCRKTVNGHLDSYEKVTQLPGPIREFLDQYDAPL
# B1: pY765 STVVHSG(pY)RHQVPSV gp130 (758-772) (peptide)
# peptide: Biotin-STVVHSG[pY]RHQVPSV-NH2
# SMILES: CC(C)[C@H](NC(=O)[C@H](CO)NC(=O)[C@@H]1CCCN1C(=O)[C@@H](NC(=O)[C@H](CCC(N)=O)NC(=O)[C@H](Cc1c[nH]cn1)NC(=O)[C@H](CCCNC(=N)N)NC(=O)[C@H](Cc1ccc(OP(=O)(O)O)cc1)NC(=O)CNC(=O)[C@H](CO)NC(=O)[C@H](Cc1c[nH]cn1)NC(=O)[C@@H](NC(=O)[C@@H](NC(=O)[C@@H](NC(=O)[C@H](CO)NC(=O)CCCC[C@@H]1SC[C@@H]2NC(=O)N[C@@H]21)[C@@H](C)O)C(C)C)C(C)C)C(C)C)C(N)=O
# notes: also called biotinylated gp130(758-772) phosphopeptide; member of the group m25
# B2: biotinylated gp130(674-688) phosphopeptide (peptide)
# peptide: Biotin-FNSKDQM[pY]SDGNFTD-NH2
# SMILES: CSCC[C@H](NC(=O)[C@H](CCC(N)=O)NC(=O)[C@H](CC(=O)O)NC(=O)[C@H](CCCCN)NC(=O)[C@H](CO)NC(=O)[C@H](CC(N)=O)NC(=O)[C@H](Cc1ccccc1)NC(=O)CCCC[C@@H]1SC[C@@H]2NC(=O)N[C@@H]21)C(=O)N[C@@H](Cc1ccc(OP(=O)(O)O)cc1)C(=O)N[C@@H](CO)C(=O)N[C@@H](CC(=O)O)C(=O)NCC(=O)N[C@@H](CC(N)=O)C(=O)N[C@@H](Cc1ccccc1)C(=O)N[C@H](C(=O)N[C@@H](CC(=O)O)C(N)=O)[C@@H](C)O
# B3: pY914 QTVRQGG(pY)MPQ gp130 (907-917) (peptide)
# peptide: Biotin-QTVRQGG[pY]MPQ-NH2
# SMILES: CSCC[C@H](NC(=O)[C@H](Cc1ccc(OP(=O)(O)O)cc1)NC(=O)CNC(=O)CNC(=O)[C@H](CCC(N)=O)NC(=O)[C@H](CCCNC(=N)N)NC(=O)[C@@H](NC(=O)[C@@H](NC(=O)[C@H](CCC(N)=O)NC(=O)CCCC[C@@H]1SC[C@@H]2NC(=O)N[C@@H]21)[C@@H](C)O)C(C)C)C(=O)N1CCC[C@H]1C(=O)N[C@@H](CCC(N)=O)C(N)=O
# notes: also called biotinylated gp130(907-917) phosphopeptide; member of the group m25
# Tests used:
# [1] = target: recombinant murine SOCS-3, hexahistidine tagged (expressed from pET15b in E. coli, refolded) (murine) (UniProt O35718); assay: SPR competition assay, soluble peptide against immobilised biotin-gp130(750-764) phosphopeptide
# [2] = target: recombinant murine SOCS-3, hexahistidine tagged (expressed from pET15b in E. coli, refolded) (murine) (UniProt O35718); assay: SPR competition assay, reference gp130(750-764) phosphopeptide
# [3] = target: recombinant murine SOCS-3, hexahistidine tagged (expressed from pET15b in E. coli, refolded) (murine) (UniProt O35718); assay: SPR competition assay, soluble peptide against immobilised biotin-gp130(750-764) phosphopeptide; remark: listed apart in the source
# [4] = target: EPOR/gp130 chimeric receptor (erythropoietin receptor extracellular domain and gp130 cytoplasmic domain); assay: cell-based or functional assay
# [5] = target: EPOR/gp130Y757F chimeric receptor (EPO receptor extracellular domain and gp130 cytoplasmic domain with tyrosine 757 mutated to phenylalanine); assay: cell-based or functional assay
# [6] = target: recombinant murine SOCS-3, hexahistidine tagged (expressed from pET15b in E. coli, refolded) (murine) (UniProt O35718); assay: SPR competition assay, soluble peptide against immobilised biotin-gp130(750-764) phosphopeptide, ~100 nM SOCS-3
# [7] = target: T1, recombinant murine SOCS-3, …; assay: pull-down: biotinylated phosphopeptide on streptavidin-agarose, eluate on SDS-PAGE
# Protocol: After washing and elution of bound protein, samples were analyzed by SDS-PAGE.
# Biotinylated phosphopeptides were also prepared corresponding to the known tyrosine phosphorylation sites in murine STAT-1 (Y701) and STAT-3 (Y705). […] Following removal of the protein solution, resin was washed twice with 1 mL PBS/0.1% v/v Tween-20, and bound protein eluted with 25 μL of SDS sample buffer containing 10 mM DTT, Samples were analyzed by SDS-PAGE on 12% w/v polyacrylamide gels.
Molecule,IC50 analogue/IC50 wild-type [2],IC50 [6] [nM],further results
JAK1 activation loop phosphopeptide IETDKE(pY)YTVKDDRD,,,IC50 [1]: 230000 nM
JAK2 activation loop phosphopeptide LPQDKE(pY)YKVKEPGE,,,fold weaker affinity than gp130(750-764) [2]: 10000 fold
JAK3 activation loop phosphopeptide LPLGKD(PY)YVVREPGQ,,,fold weaker affinity than gp130(750-764) [2]: 1000 fold; IC50 [1]: 140000 nM; IC50 [3]: 110000 nM
"SOCS-3 expressed in transiently transfected 293T cells (Flag-tagged, detected with anti-Flag antibody)",,,50% inhibition of EPO-induced APRE-luc luciferase activity in 293T cells (amount of SOCS-3 DNA transfected) [4]: 4 ng; 50% inhibition of EPO-induced APRE-luc luciferase activity in 293T cells (amount of SOCS-3 DNA transfected) [5]: 54 ng
gp130(750-764) phosphopeptide analogue STASTVE(pY)ATVVHSG,0.65,72,
gp130(750-764) phosphopeptide analogue STASTVE(pY)STAVHSG,31,3400,
gp130(750-764) phosphopeptide analogue STASTVE(pY)STVAHSG,10,1100,
gp130(750-764) phosphopeptide analogue STASTVE(pY)STVVASG,7,770,
truncated gp130 phosphopeptide Ac(pY)STVVHSG,87,9600,
truncated gp130 phosphopeptide AcE(pY)STVVHSG,8.8,970,
truncated gp130 phosphopeptide AcTVE(pY)STVVHSG,1.1,120,
truncated gp130 phosphopeptide STASTVE(pY)STVV,10,1100,
truncated gp130 phosphopeptide STASTVE(pY)STVVH,0.7,77,
truncated gp130 phosphopeptide STASTVE(pY)STVVHS,0.55,61,
truncated gp130 phosphopeptide analogue AcAE(pY)STVVHSG,5.3,580,
truncated gp130 phosphopeptide analogue AcVA(pY)STVVHSG,5,550,
B1,,,binding result [7]: no binding (tested: 50 µg/mL)
B2,,,binding result [7]: no binding (tested: 50 µg/mL)
B3,,,binding result [7]: no binding (tested: 50 µg/mL)
